Results as given in PMC5750328, “Study on oligomerization of glutamate decarboxylase from Lactobacillus brevis using asymmetrical flow field-flow fractionation (AF4) with light scattering techniques” (Analytical and Bioanalytical Chemistry, 2017).

Assays:
[1] = target: the molecule itself; assay: asymmetrical flow field-flow fractionation with UV, MALS and dRI detection (AF4-UV-MALS-dRI); self-association; carrier liquid 10 mM citrate-phosphate buffer pH 6, room temperature; relative amounts from deconvoluted UV fractograms at 280 nm
[2] = target: the molecule itself; assay: asymmetrical flow field-flow fractionation with UV, MALS and dRI detection (AF4-UV-MALS-dRI); self-association; carrier liquid 10 mM citrate-phosphate buffer pH 8, room temperature; relative amounts from deconvoluted UV fractograms at 280 nm

B1: glutamate decarboxylase (LbGadB) from Lactobacillus brevis DSM 1269, recombinant (enzyme, UniProt A9ZM78 1-480, looked up)
chain: MMNKNDQETQQMINNVDLEKTFLGSVEAGQSLPTYTLPDDPMAPDVAAQLVEHYRLNEAKANQNLATFCTTQMEPQADELMKNALNTNAIDKSEYPKTAAMENYCVSMIAHLWGIPDNEKIYDDFIGTSTVGSSEGCMLGGLALLHSWKHRAKAAGFDIEDLHSHKPNLVIMSGYQVVWEKFCTYWNVEMRQVPINGDQVSLDMDHVMDYVDENTIGIIGIEGITYTGSVDDIQTLDNLVTEYNKTATMPVRIHVDAAFGGLFAPFVDGFNPWDFRLKNVVSINVSGHKYGMVYPGLGWIVWRHDTADILPAEMRFQVPYLGKTVDSIAINFSHSGAHISAQYYNFIRFGLSGYKTIMQNVRKVSLKLTAALKTYGIFDILVDGSQLPINCWKLADDAPVGWTLYDLESELAKYGWQVPAYPLPKNRDDVTISRIVVRPSMTMTIADDFLDDLKLAIDGLNHTFGVTTTVDQDNKTTVRS
notes: glutamate decarboxylase LbGadB of Lactobacillus brevis DSM 1269; gene amplified from genomic DNA with a forward primer that holds the ATG (NdeI site) and a reverse primer with an XhoI site, cloned in pET21b; gene deposited as GenBank KX417371; Oligomeric state depends on pH: dimer at pH 7-8, hexamer at pH 6, so copies is left empty; the whole gene appears to have been cloned; Cloning NdeI/XhoI in …
- stoichiometry N [1]: 6
- stoichiometry N [2]: 2
